Experiment: yeast display, Sf9 membrane polyspecificity reagent, FACS + sequencing; frameworks hold sequencing errors
Outline: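 A synthetic nanobody library was expressed on Saccharomyces cerevisiae BJ5465 by galactose induction for 36–48 hours. The library was stained for 1 hour at 4 °C with 10% biotinylated, detergent-solubilized Sf9 membrane reagent and enriched with streptavidin microbeads before FACS. Low and high (top ~1%) gates were set on anti-HA fluorescence for expression and streptavidin fluorescence for reagent binding, and each polyreactivity label reflects the gate of origin.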

Row | Sequence | polyreactivity (PSR sort gate)
1 | QVQLVESGGGLVQAGGSLRLSCAASGIIFSGYVMGWYRQAPGKERELVAAISSGGSTYYADSVKGRFTISRDNAKNTVYLQMNSLKPEDTAVYYCAAAGYWTLGYGYWGQGTQVTVSS | low polyreactivity
2 | QVQLVESGGGLVQAGGSLRLSCAASGSTFSYNAMGWYRQAPGKERELVATITYSGGTTYYADSVKGRFTISRDNAKNTVYLQMNSLKPEDTAVYYCAALYSFSYLSTSFVVEDWYYYWGQGTQVTVSS | high polyreactivity
3 | QVQLVESGGGLVQAGGRLRLSCAASGFIFGTYTMGWYRQAPGKERELVAAITNGGSTYADSVKGRFTISRDNAKNTVYLQMISLKPEDTAVYYCAADYRGHSGAWYDYWGLGTQVTVSS | low polyreactivity
4 | QVQLVESGGGLVQAGGSLRLSCAASGRIFRFYAIGAYRQAPGKERELVAVISTGGSTNYADSVKGRFTISRDNAKNTVYLQMNSLKPEDTAVYYCAKRKQSWGPGYSYYSSQYSMDYWGQGTLVTVSS | high polyreactivity
5 | QVQLVESGGGLFQAGGSLRLSCAASGFTFVDYAMAWYRQAPGKERELVAAITVSGDSTYYADSVKGRFTISRDNAKNTVYLQMNSLKRADTAFYYCAADPGYYYGGYWGQGTQVTVST | low polyreactivity
6 | QVQLVESGGGLVQAGGSLRLSCAASGFIFYSNAMGWYRQEPGKERELLADINRGGTSTYYADSVKGRFTISRDNAKNTVYLQMNSLKPEDTAVYYCNAGLRYRSRLWNIYWYDYWGQGTQVTVSS | high polyreactivity
7 | QVQLVESGGGLVQAGGSLRLSCAASGFIFVSYAMGWYRPAPGKERELVAAIDRIGGITYYADSVKGRFTISRDNAKNTVYLQMNSLKPEDTAVYYCAAAARYATVRVGREYYWGQGTQVTVSS | low polyreactivity
8 | QVQLVESGGGLVQAGGSLRLSCAASGRTFQYNAMGWYRQAPGKQWELVAAISSSGGSTYYADSVKGRFTISRDNAKITVYLKMNSLKPEDTAVYYCNAYSQSWNFYGDGDYWGQGTQVTVSS | low polyreactivity
9 | QVQLVESGGCLVQAGGSLRLSCAASGSIFYNNAMGWYRQAPGKERELVASSTGGGSTYADSVKGRFTISRDNAKNRVYVQMNSLKPEDTAVYYCAVGRYFVRYDYWGQGSQVTVSS | low polyreactivity
10 | QVQLVESGGGLVQAGGSLRLSCAASGRTFAYNTMGWYRQAPGKESELVAAITWSGGGTYYADSVKGRFTISRDNAKNTVYLQMNSLKPEDTAVYYCAVEYASPRARYRYYYWGQGTQVTVSS | high polyreactivity
11 | QVQLVESGGGLVQAGGSLRLSCAASGSILNSYAMGWYRQAPVKERELVARITGDGGITYYADSVKGRFTISRDNAKNTVYLQMNSLKPEDTAVYYCNAEVVALRRDTIYDYWGQGTQVTVSS | low polyreactivity
12 | QVQLQESGGDLEQAGGSLRLSCTASGTISDVRVMGWYRQAPGKERELVATISYVTITYYADSVKGRFTISRDSEKHRVSADDEPESGRYRGVLLRYYWGLGTQVTVSS | low polyreactivity
13 | QVQLVESGGGLVQAGGSLRLSSAASGSTFKFYAMGWYRQAPGKERELVAAIRYSGGSTYYADSVKGRFTISRDNAKNTVYLQMNSLKPEDTAVYFCATEAQCVTYWFGYWGQGTQVTVSS | low polyreactivity
14 | QVQLVESGGGLVQAGASLRLSCAASGITFVHYAMGWYRQAPWKEREFVAAITKGGGSTSYADSVKGRFTISRDNAKNTVYLQMNSLKPEDTAVDYCAKRYWGTKYGITARFDYWGQGTQVTVSS | high polyreactivity
15 | QVQLVESGGGLVQAGGSLRLSCAASGRILRDYDMGWYRQSPGKERELVAAINWSDGSTYYADSVKGRFTISRDNAKNTVYLQMNSLKPEDPAVYYCAASRWRPLERGTTWLHDYWGQGTQVTVSS | low polyreactivity
16 | QVQLVESGGGLDQAGGSLRLSCAASGSIYNRYAMGWYRQAPGKERELVADISSGGGTSYADSVKGRFTISRDNAKNTVYLQMNSLKPEDTAVYYCAAELYYWTYVRFDYWGQGTQVTVSS | high polyreactivity
17 | QVQLVESGGGLVQAGGRLRLSCAASGSTFWSKVMGWYRQAPGKERELVSAISYGGVTTSYADSVKGRFTISRDNAKNTVYLQMTSLKPEDTAVYYCATDYVGYYFYESDYWGQGTQVTVSS | low polyreactivity
18 | QVQLVESGGGLVKAGCSLRLRCAASGGTFSYYAMGLYRQAPGKERELVAAISRSSSRTYYADSVKGRFTISRDNAKNTVFLQMNSLKPEDTAVYYCAADRVSYSGRTPKGQRYDYWGQGTQVTVSS | high polyreactivity
19 | QVQLVESGGGLVQAGGSLRLSCAATGSLFLPYGMGWYSQAPGKERELVAAFSRGGGSTYYADSVKGRFTISRDNAKNTVYLQMNSLKPEDTAVYYCAVDNLKSRAQSLDGFDYWGQGTQVTVSS | high polyreactivity
20 | QVQLVESGGGLVQAGGSLRLSCAASGRTLGYYAMGWYRQAPGKERELVAAISRSGGSTYYADSVKGRFTISRDHAKNTVYLQMNSLKPEDTAVYYCAATYGPSRYRYDYWGQGTQVTVSS | high polyreactivity
21 | QVQLVESGGGLVQAGGSLRLSCAASGRIFNRNAKGWYRQAPGKERELVAAISSDTSTNYADSVKGRFTISRDNAKNTVYLQMNCLKPEDTAVYYCATKYGTSNWYNTYYYWGQGTQVTVSS | low polyreactivity
22 | QVQLVESGGGLVQAGGSLRLSCAASGRIFGYNAMGWYRQATGKERELVAGITRNDGSTYYADSVKGRFTISRDNAKNTVYLLMNSLKPEDTAVYYCYRYLHLAGSWGQGTQVTVSS | low polyreactivity

Row | Sequence | polyreactivity (PSR sort gate)
23 | QVQLVESGGGLVQAGGSLRLSCAASGSIFRVYAMGWYRHAPGKERELVATITSSGGFTYADSVKGRFTISRDNAKNTVYLQMNSLKQEDTAVYYCATVRFGQYWVPSGYSWGYTYDYWGQGTQVTVSS | high polyreactivity
24 | QIQLVESGGGLVQAGSSLRLSCAASGRTFNTYAMGGYRPAPGNERELVAAITYNGGSTYYADSVKGRFTISRDNAKTTVYLQMNSLKPEYTAVYDCNVRLRTRYRKYDYWGQGTQVTVSS | high polyreactivity
25 | QVQLVESGGGLVQAGGSLRLSCAASGITFYGNAMGWYRQAPGKERELVAAIRRGGSTNYADSVKGRFTISRDNAKNTVYLQMNSLKPEDTALYYCAADRYGYTYRNYRVGYWGQGTQVTVSS | high polyreactivity
26 | QLQLVDSGGGLVKAGGSLRLSCAASGRTFYRYAMGWYRKAPGKERELVAAINFSTGSTYYADSVKGRFTISRDNAKNTVYLQMNSLKPEDTAVYYCAVPYGSYVGYDYWGQGTQVTVSS | low polyreactivity
27 | QVQLQESGGGLVQAGGSLRPSCAASGNIFVPFKMGWYRLAPGKEREHVASINRGSTTNYADSVKGRFTISRDNAKNTVYLQMISLKPEDTAVYYCAAIAYPDIPTYLDYDSDYFYWDQGTQVTVSS | high polyreactivity
28 | QVQLVESGGGLVQAGGSLRLSCAASGRTSVKYAMGWYRQAPGKERELVAAITYRGSSTYYADSVKGRFTISRDNAKNTVYLQMNSLKPEDTAVYYCAARPPLSGRYGYYYWGQGTQVTVSS | high polyreactivity
29 | QVQLVESGGGLVQAGGSLPLSCAASGRIFNQYGMVWYRQAPGKERELVAAIRSGDSTNYADSVKGRFTISRDNAMNTVYLQMKSLKPEDPAVYYCARDRPGDYAGYDYWGQGTQVTVSS | low polyreactivity
30 | QVQLVESGGGLVQAGGSLRLSCAASGIFSYYAMGWYRQAPGKERELVATISRRGSSTYYADSVKGRFTISRDNAKNTVYLQMNSLKPEDTAVYYCNADIGWGRFSQSFDYWGQGTQVTVSS | low polyreactivity
31 | HLQLVESGGGLVQAGGSLRLSCAASGRIFPGYAMGWYRQAPGKERELVAAIDGTGTSTYYADSVKGRFTISRDNAKNTVDLQMNSLNPEDTAVYYCAADGRPRGTFGYWGQGTQVTVSS | low polyreactivity
32 | QVQLVESGGGLVQAGGRLLLSCAASGRTFYRNAMGWYRQAPGKEREFVPSIRTSGGSTYYADSVKGRFTISRDNAKNTVYLQMNSLKPEDTAVYYCKKYRQQGWEFDYWGQGTQVTVSS | high polyreactivity
33 | QVQLVESGGGLVQAGGSLRLSCAASGRTFWEHAMGWYRQAPGKERELVAAISGDSGSTYYADSVKGRFTISRDNANNSVYLQMNSLKPEDTAVYYCAGDSDRDDSYPYYYWGQGTQVTVSS | low polyreactivity
34 | QVQLQESGGGLVRAGGSLSLSCAASGTIFGQFYMGRYRQAPGKEREFVATINYGSSTNYADSVKGRYTISRDNAKNTVYLQMNSLKPEDTAVYYCNTDFFYYGYNFPYFDYDYWGQGSQVTVSS | low polyreactivity
35 | QVQLVESRGGLVQAGGSLRLSCAASGSTLYLYALGWYRQAPGKERELVAAISQSGTRTYYADSVKGRFTISRDNAKNTVYLQMNSQKPEDTAVSYCAAGRYQPYSYDYWGQGTQVTVSS | high polyreactivity
36 | QVQLVESGGGLVQAGGSLRLSCAASGSTFDSYGMGWYRQAPGKERELVASISSRGGSTYYADSVKGRFTLSRDNAKNTVYFQMNSLKPEDTAVYYCAAKGPRRWGSGFDYWGQGTQVTVSS | low polyreactivity
37 | QVQLVESGGGLVQAGGSLRLSCAASGRIYSWYAMGWYRQAPGKERELVAVISRGVSTYYADSVKGRFTISRDNAKNTVYLQMNSLKPEDTAVYYCAAYSGGRYYYWGQGTQVTVSS | low polyreactivity
38 | QVQLVESGGGLVQAGGSHRLSCAASGRTFRDNTLGWYRQAPGKERELVAAISRRGGSTYYADSVKGRFTISRDNANNTVYLQMNSLKPVDTADYYCNAVFLTYGSNRGEYWGQGTQVTVSS | high polyreactivity
39 | QVQLVESGGGLVQAGGSLRLSCAASGRIFAYNDMGWYRQAPGKEREFVAAITWSGTTFSADSVKGRFTISRDNAKNTVYLQMNSLNPEDTAVYYCAAVPYTRWKGADGDYDDVYTEYWGQGTQVTVSS | high polyreactivity
40 | QVQLVESGGGLVQAGGSLRLSCAASGRIFTYYAMGWYRQAPGKERELVATITRRGGRTYYADSVKGRFTISRDNAKNTVYLQMNSLKPEDTAVYYCAVVPETRYYYWGQGTLVTVSS | high polyreactivity
41 | QVQHVESRGGLVQAGGSLRLSCAASGFTFSRNAMGRYRQAPGKESDLVAAIDSGGSTDYADSVKGRFTNSRDNAKNTVYLQMNSLKPADTAVYYCAKASSATRYVQLRQDYDYWGQGTKVTVSS | low polyreactivity
42 | KVQLVESGGGLVQAGGSLRLSCAASGRTFGDYAMGWSRQAPGKEREWVARISWDGGSTYYADSVKGRFTISRDNAKNTVYLQMNSLKPEDTAGYYCYSKSDYWGQGTQVTVSS | low polyreactivity
43 | QVQLVESGGGLVQAGGSLRLSCAASGGIFYRNAMGWYRQAPGKERELVAAISSGGGSTYYADSVKGRFTISRDNAKNTVYLQMNSLKPEDTAVYYCARDSYHLYIQPFGYWGQGTQVTVSS | low polyreactivity
